# Test results reported in patent publication US20240287172A1 (SCIRHOM, published 2024).
# T1: hiR2-FL-K536A-T7 (human, UniProt Q6PJF5 1-856)
# T1 construct: on MEF-DKO cells
# T1 sequence: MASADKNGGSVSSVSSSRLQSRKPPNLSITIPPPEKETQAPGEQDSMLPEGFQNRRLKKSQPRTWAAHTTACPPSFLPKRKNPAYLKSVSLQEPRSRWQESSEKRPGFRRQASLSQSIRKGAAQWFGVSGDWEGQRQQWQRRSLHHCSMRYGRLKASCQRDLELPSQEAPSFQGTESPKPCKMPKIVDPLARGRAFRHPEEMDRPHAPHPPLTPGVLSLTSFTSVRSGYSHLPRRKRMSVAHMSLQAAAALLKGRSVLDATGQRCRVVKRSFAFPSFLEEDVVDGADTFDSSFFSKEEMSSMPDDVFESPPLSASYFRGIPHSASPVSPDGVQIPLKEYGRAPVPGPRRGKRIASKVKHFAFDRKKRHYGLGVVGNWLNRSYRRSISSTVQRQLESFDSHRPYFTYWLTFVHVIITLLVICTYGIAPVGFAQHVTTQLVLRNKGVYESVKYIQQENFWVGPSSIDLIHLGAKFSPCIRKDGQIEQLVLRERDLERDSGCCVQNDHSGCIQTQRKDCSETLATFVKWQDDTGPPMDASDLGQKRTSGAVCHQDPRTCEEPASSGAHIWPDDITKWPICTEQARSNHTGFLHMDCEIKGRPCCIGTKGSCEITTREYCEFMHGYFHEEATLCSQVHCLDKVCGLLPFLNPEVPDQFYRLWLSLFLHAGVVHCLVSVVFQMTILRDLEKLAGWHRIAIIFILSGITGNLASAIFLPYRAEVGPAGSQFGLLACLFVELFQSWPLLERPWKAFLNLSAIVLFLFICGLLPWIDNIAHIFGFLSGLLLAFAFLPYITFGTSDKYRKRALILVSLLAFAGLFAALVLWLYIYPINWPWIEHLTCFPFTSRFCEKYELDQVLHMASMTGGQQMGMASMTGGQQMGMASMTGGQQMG
# T2: hiR2-FL-G587A-T7 (human, UniProt Q6PJF5 1-856)
# T2 sequence: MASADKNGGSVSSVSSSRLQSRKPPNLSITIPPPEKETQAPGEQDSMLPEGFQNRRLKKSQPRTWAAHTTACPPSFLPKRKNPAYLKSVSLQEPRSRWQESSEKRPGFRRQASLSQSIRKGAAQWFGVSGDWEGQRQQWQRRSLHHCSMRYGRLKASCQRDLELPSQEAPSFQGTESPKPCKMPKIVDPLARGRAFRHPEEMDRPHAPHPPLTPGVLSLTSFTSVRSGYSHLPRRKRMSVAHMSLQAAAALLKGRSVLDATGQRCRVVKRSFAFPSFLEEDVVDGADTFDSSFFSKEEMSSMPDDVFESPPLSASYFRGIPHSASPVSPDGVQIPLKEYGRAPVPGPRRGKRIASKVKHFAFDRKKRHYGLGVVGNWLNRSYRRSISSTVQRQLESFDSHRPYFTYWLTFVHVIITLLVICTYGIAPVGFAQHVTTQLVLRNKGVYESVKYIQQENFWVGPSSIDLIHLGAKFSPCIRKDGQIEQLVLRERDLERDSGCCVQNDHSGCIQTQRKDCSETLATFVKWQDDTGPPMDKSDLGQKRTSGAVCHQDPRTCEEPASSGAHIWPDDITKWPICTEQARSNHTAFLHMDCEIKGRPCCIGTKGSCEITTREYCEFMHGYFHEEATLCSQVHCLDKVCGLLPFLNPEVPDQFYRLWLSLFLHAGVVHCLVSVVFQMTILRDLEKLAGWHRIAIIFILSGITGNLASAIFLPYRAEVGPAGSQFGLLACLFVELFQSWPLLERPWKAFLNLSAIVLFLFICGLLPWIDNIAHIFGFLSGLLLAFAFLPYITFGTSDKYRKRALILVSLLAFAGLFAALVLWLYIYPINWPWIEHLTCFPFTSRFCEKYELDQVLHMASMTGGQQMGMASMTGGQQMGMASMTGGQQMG
# Tests used:
# hiR2-FL-K536A-T7 = biological target: T1, hiR2-FL-K536A-T7; experiment: FACS on MEF-DKO cells expressing the variant, 3 µg/ml antibody
# In short: (§1)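 Cells were stained with purified antibody at 3 μg/ml in FACS buffer for 1 hour on ice, with buffer-only controls. Bound antibody was detected with PE-conjugated goat anti-mouse IgG F(ab′)2 at 1:100, 1 hour on ice in the dark, followed by flow cytometry.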
# hiR2-FL-G587A-T7 = biological target: T2, hiR2-FL-G587A-T7; experiment: as above
# In short: as §1
Binder,loss of binding vs wild type (hiR2-FL-K536A-T7) [%],loss of binding vs wild type (hiR2-FL-G587A-T7) [%]
"antibody 5 (antibody, V domains shown, mouse IgG, kappa light chain; also called clone #5; purified antibody 5) VH: QVTLKESGPGILQPSQTLSLTCSFSGFSLSTFGMGVGWIRQPSGKGLEWLAHIWWDDEKYYNSALKSRLTISKATSKNQAFLKIANVDTADTATYYCARISNYGSNYWYFNVWGTGTTVTVSS VL: QVVLTQSPALMSASPGEKVTMTCSAGSSVSCMYWYQQKPGSSPRVLIYDTSNLASGVPARFTGSGSGTSYSLTISRMEAEDAASYYCQQWNSYPLTFGAGTKLELK",≥ 95,
"antibody 43 (antibody, V domains shown, mouse IgG, kappa light chain; also called clone #43; purified antibody 43) VH: QVALKESGPGILQPSQTLSLTCSFSGFSLSTFGMGVGWIRQSSGKGLEWLANIWWDDDKYYNPALKSRLTISKDASKNQAFLKIANVDTADTATYYCARIGNYGSNYWYFDVWGTGTTVTVSS VL: QIVLTQSPAIMSASPGERVTMTCSANSRISYMYWYQQKPGSSPRLLIYDTSNLASGVPVRFSGSGSGTSYSLTISRMEAEDAATYNCQQWSSYPLTFGAGTKLELK",≥ 60,≥ 30
"antibody 44 (antibody, V domains shown, mouse IgG, kappa light chain; also called clone #44; purified antibody 44) VH: QVTLKESGPGILQPSQTLSLTCSFSGFSLSTFGMGVGWIRQPSEKGLEWLAHIWWDDDKYYNPALKSRLTISKDTSKNQIFLKITNVDTAETATYYCSRIGNYGSNYWYFDVWGTGTTVTVSS VL: QIVLTQSPAVMSASPGEKVTMTCTASSSVYYMYWYQQTPGSSPRLLIYDTSNLASGVPVRFSGSGSGTSYSLTISRMEAEDAATYYCQQWNTYPLTFGAGTKLELK",,≥ 30
"antibody 48 (antibody, V domains shown, mouse IgG, kappa light chain; also called clone #48; purified antibody 48) VH: QVQLQQSGTELVRPGTSVKVSCKASGYAFTNYLIEWVKQRPGQGLEWIGVINPGSGFTKYNEKFKGKATLTADKSSSTVYMHLSSLTSEDSAVYFCARGLYRAMDYWGQGTSVTVSS VL: DIQMTQSPASQSASLGESVTITCLASQTIATWLAWYQQKPGKSPQLLIYGATTLADGVPSRFSGGGSGTKFSFKISSLQAEDFVSYYCQQLYSTPYTFGGGTKLEIK",≥ 30,≥ 30
"antibody 50 (antibody, V domains shown, mouse IgG, kappa light chain; also called clone #50; purified antibody 50) VH: QVQLQQSGAELVRPGASVKVSCKASGYAFSNYLIEWVKQRPGQGLEWIGVINPGSGFTKYNEKFKGKATLTADKSSSTAYMQLSSLTSEDSAVYFCARGLYRAMDYWGQGTSVTVSS VL: DIQMTQSPASQSASLGESVTITCLASQTIGTWLAWYQQKPGKSPQLLIYAAASLADGVPSRFSGGGSGTKFSFKISSLQAEDFVNYYCQQIYSTPYTFGGGTKLEIK",,≥ 60
"antibody 16 (antibody, V domains shown, mouse IgG, kappa light chain; also called clone #16; purified antibody 16) VH: QVTLKESGPGILQPSQTLSLTCSFSGFSLSTFALGVGWIRQPSGRGLEWLAHIWWDDDKYYNPALKSRLTISKDTSKNHVFLKIANVDTADTATYYCARITTYYYGMDYWGQGTSVTVSS VL: DIVLSQSPATLSVTPGDSVSLFCRASQSIGNHLHWYQQESHASPRLLIKYASQSISGIPSRFSGSGSGTDFTLSINSVETEDFGMYFCQQSYNWPLTFGAGTKLELK",≥ 60,
"antibody 3 (antibody, V domains shown, mouse IgG, kappa light chain; also called clone #3; purified antibody 3) VH: QVTLKESGPGILQPSQTLSLTCSFSGFSLTTFAMGIGWVRQPSGKGLEWLAHIWWDGEKYNNPVLKSRLTISKDTSKNQVFLRIANVDTPDTATYYCARISSIYYIIDNWGQGTSVTVSS VL: DIVLTQSPATLSVTPGHSVSLSCRASQSISNNLHWYQKKSHESPRLLIKYVSQSISGIPSRFSGSGSGTDFTLSINSVETEDFGMYFCQQSYNWPLTFGAGTKLELK",≥ 60,
